T1: HMunc18c (mouse, UniProt Q60770 1-592)
T1 construct: pQE30 vector; also called Munc18-3; source: E. coli BL21 with GroEL/ES chaperones, purified (Ni2+ resin, SEC, MonoS if required); not shown: His6, N-terminal, kept
T1 sequence (looked up): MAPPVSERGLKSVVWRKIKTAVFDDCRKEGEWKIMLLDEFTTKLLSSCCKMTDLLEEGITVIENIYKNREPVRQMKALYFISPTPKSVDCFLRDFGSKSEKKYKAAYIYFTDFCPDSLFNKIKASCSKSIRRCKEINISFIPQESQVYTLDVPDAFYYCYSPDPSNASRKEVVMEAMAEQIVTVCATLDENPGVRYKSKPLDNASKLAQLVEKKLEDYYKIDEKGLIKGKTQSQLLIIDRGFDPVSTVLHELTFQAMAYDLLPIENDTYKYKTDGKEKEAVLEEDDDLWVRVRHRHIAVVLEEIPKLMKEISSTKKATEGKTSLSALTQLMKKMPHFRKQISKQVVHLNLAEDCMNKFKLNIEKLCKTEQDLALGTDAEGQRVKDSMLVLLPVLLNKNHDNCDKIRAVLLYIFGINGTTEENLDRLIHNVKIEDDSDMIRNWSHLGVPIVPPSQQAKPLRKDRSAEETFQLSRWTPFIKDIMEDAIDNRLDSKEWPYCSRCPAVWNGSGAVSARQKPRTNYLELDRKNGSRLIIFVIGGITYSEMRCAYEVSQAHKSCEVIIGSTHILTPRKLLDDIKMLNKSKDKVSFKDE


Assays:
HMunc18c (mouse) = HMunc18c (mouse) (UniProt Q60770); experiment: ITC; Munc18 proteins (HMunc18c or Munc18a-His) at 10–20 μM with Syntaxin partners at 100–550 μM; 298 K; 25 mM HEPES pH 8, 200 mM NaCl, 2 mM β-mercaptoethanol, 10% glycerol; 16 injections of 2.45 μL; which partner was in the syringe is not said
HMunc18c = target: T1, HMunc18c; experiment: as above; conditions: both partners purified

Row | Molecule | Kd (HMunc18c (mouse)) [nM] | dH (HMunc18c (mouse)) [kcal/mol] | stoichiometry N (HMunc18c (mouse)) | Kd (HMunc18c) [nM] | dH (HMunc18c) [kcal/mol] | stoichiometry N (HMunc18c)
1 | Sx1_(1-261)-His (from UniProt P32851 1-261) (domain or fragment) | 80 | -15.2 | 1.03 | – | – | –
2 | ΔNSx1_(25-261)-His (from UniProt P32851 25-261) (domain or fragment) | 730000 | -4.44 | 1.07 | – | – | –
3 | Sx4_(1-275)-His (domain or fragment, rat, UniProt Q08850 1-275, looked up, cloned into pET20b; also called Syntaxin4; not shown: His6, C-terminal, kept) MRDRTHELRQGDNISDDEDEVRVALVVHSGAARLSSPDDEFFQKVQTIRQTMAKLESKVRELEKQQVTILATPLPEESMKQGLQNLREEIKQLGREVRAQLKAIEPQKEEADENYNSVNTRMKKTQHGVLSQQFVELINKSNSMQSEYREKNVERIRRQLKITNAGMVSDEELEQMLDSGQSEVFVSNILKDTQVTRQALNEISARHSEIQQLERSIRELHEIFTFLATEVEMQGEMINRIEKNILSSADYVERGQEHVKIALENQKKARKKKVM | – | – | – | 100 | -14.1 | 1.03

— PMC5663490 (PLoS ONE, 2017)
